According to article PMC4619462, “Description of the first fungal dye-decolorizing peroxidase oxidizing manganese(II)” (Applied Microbiology and Biotechnology, 2015):

How the values were obtained:
Experiment in all cases: purified protein
purified protein [1] = substrate: Nc1c(S(=O)(=O)O)cc(Nc2cccc(S(=O)(=O)CCOS(=O)(=O)O)c2)c2c1C(=O)c1ccccc1C2=O; assay type: biochemical, Pleurotus ostreatus; conditions: 0.25 mM H2O2, 0.1 M tartrate pH 3.5, 25 °C
purified protein [2] = substrate: CCn1c(=NN=c2sc3cc(S(=O)(=O)O)ccc3n2CC)sc2cc(S(=O)(=O)O)ccc21; assay type: biochemical, Pleurotus ostreatus; conditions: 0.25 mM H2O2, 0.1 M tartrate pH 3.5, 25 °C
purified protein [3] = substrate: Nc1c(S(=O)(=O)O)cc(Nc2cccc(S(=O)(=O)CCOS(=O)(=O)O)c2)c2c1C(=O)c1ccccc1C2=O; conditions: 0.25 mM H2O2, 0.1 M tartrate pH 3.5, 25 °C, pH 3.5
purified protein [4] = substrate: COc1cccc(OC)c1O; conditions: 0.25 mM H2O2, 0.1 M tartrate pH 3.5 (table note; methods say pH 3), 25 °C
purified protein [5] = substrate: Nc1c(N=Nc2ccc(S(=O)(=O)CCOS(=O)(=O)O)cc2)c(S(=O)(=O)O)cc2cc(S(=O)(=O)O)c(N=Nc3ccc(S(=O)(=O)CCOS(=O)(=O)O)cc3)c(O)c12; conditions: 0.25 mM H2O2, 0.1 M tartrate pH 3.5 (table note; methods say pH 3), 25 °C

Row | Protein | Km (purified protein [1]) [µM] | kcat (purified protein [1]) [s⁻¹] | kcat/Km (purified protein [1]) [M⁻¹ s⁻¹] | Km (purified protein [2]) [µM] | kcat (purified protein [2]) [s⁻¹] | kcat/Km (purified protein [2]) [M⁻¹ s⁻¹] | Km (purified protein [3]) [µM] | kcat (purified protein [3]) [s⁻¹] | kcat/Km (purified protein [3]) [M⁻¹ s⁻¹] | Km (purified protein [4]) [µM] | kcat (purified protein [4]) [s⁻¹] | kcat/Km (purified protein [4]) [M⁻¹ s⁻¹] | Km (purified protein [5]) [µM] | kcat (purified protein [5]) [s⁻¹] | kcat/Km (purified protein [5]) [M⁻¹ s⁻¹]
1 | Pleos-VP2 (Pleurotus ostreatus) (protein) VTCATGQTTANEACCALFPILDDIQTNLFDGAQCGEEVHESLRLTFHDAIAFSPALTNAGQFGGGGADGSMIIFSDTEPNFHANLGIDEIVEAQKPFIARHNICAADFIQFAGAIGVSNCAGAPRLNFFLGRPDATQIPPDGLVPEPFDDVTKILSRMGDAGFSTVEVVWLLSSHTIAAADLVDPSIPGTPFDSTPSTFDSQFFLETMLQGTAFPGTPGNQGEVESPLAGEMRLQSDFLLARDSRSACEWQSMVNNMPKIQNRFTQVMKKLSLLGHNQADLIDCSDVIPVPKTLTKAATFPAGKSQADVEIVCNAAATPFPALSSDPGPVTAVPPVPPS | 16 ± 1 | 8 ± 0.2 | 495000 |  |  |  |  |  |  |  |  |  |  |  | 
2 | Pleos-DyP4 (Pleurotus ostreatus PC15) (protein) MTTPAPPLDLNNIQGDILGGLPKRTETYFFFDVTNVDQFKANMAHFIPHIKTSAGIIKDREAIKEHKRQKKPGLVPMAAVNVSFSHLGLQKLGITDDLSDNAFTTGQRKDAEILGDPGSKNGDAFTPAWEAPFLKDIHGVIFVAGDCHGSVNKKLDEIKHIFGVGTSHASISEVTHVRGDVRPGDVHAHEHFGFLDGISNPAVEQFDQNPLPGQDPIRPGFILAKENGDSRAAARPDWAKDGSFLTFRYLFQMVPEFDDFLESNPIVLPGLSRKEGSELLGARIVGRWKSGAPIEITPLKDDPKLAADAQRNNKFDFGDSLVRGDQTKCPFAAHIRKTYPRNDLEGPPLKADIDNRRIIRRGIQFGPEVTSQEHHDKKTHHGRGLLFVCYSSSIDDGFHFIQESWANAPNFPVNAVTSAGPIPPLDGVVPGFDAIIGQKVGGGIRQISGTNPNDPTTNITLPDQDFVVPRGGEYFFSPSITALKTKFAIGVASPAPHSQAPISA |  |  |  | 787 ± 160 | 277 ± 24 | 352000 | 82 ± 13 | 152 ± 13 | 1.86e+06 | 126 ± 21 | 268 ± 24 | 2.12e+06 | 5.7 ± 0.4 | 5.3 ± 0.8 | 1.08e+06
